Measured values: patent US20210388110A1 (published 2021)

Biological target: T1, soluble human CD3ε chain (human, UniProt P07766 23-126, limits assumed)
T1 construct: the text says soluble human CD3ε chain; also called human CD3 epsilon chain
Test: SPR (Biacore)

T1 sequence (P07766 23-126 limits assumed): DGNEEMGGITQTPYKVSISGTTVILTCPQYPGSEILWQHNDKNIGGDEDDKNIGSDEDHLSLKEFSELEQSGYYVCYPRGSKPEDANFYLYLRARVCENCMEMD

| Kd [nM] | Binder |
| --- | --- |
| 46.9 | TR01H040-E22Hh/none-Hi-Kn010G3/L0000vk1-k0 (antibody, human IgG1, kappa, L234A L235A, N297A, single-arm) heavy: QVQLVESGGGLVQPGRSLRLSCAASGFTFSNAWMHWVRQAPGKGLEWVAQIKDKSQNYATYYAESVKGRFTISRADSKNSIYLQMNSLKTEDTAVYYCRYVHYSASYGVDAWGQGTTVTVSSASTKGPSVFPLAPSSKSTSGGTAALGCLVKDYFPEPVTVSWNSGALTSGVHTFPAVLQSSGLYSLSSVVTVPSSSLGTQTYICNVNHKPSNTKVDKKVEPKSCDKTHTCPPCPAPEAAGGPSVFLFPPKPKDTLMISRTPEVTCVVVDVSHEDPEVKFNWYVDGVEVHNAKTKPREEQYASTYRVVSVLTVLHQDWLNGKEYKCKVSNKALPAPIEKTISKAKGQPREPQVYTLPPSRCELTKNQVSLSCAVKGFYPSDIAVEWESNGQPENNYKTTPPVLDSDGSFFLVSKLTVDKSRWQQGNVFSCSVMHEALHNHYTQKSLSLSPDYKDDDDK EPKSSDKTHTCPPCPAPELLGGPSVFLFPPKPKDTLMISRTPEVTCVVVDVSHEDPEVKFNWYVDGVEVHNAKTKPREEQYNSTYRVVSVLTVLHQDWLNGKEYKCKVSNKALPAPIEKTISKAKGQPREPQVCTLPPSRDELTKNQVSLWCLVKGFYPSDIAVEWESNGQPENNYKTTPPVLDSDGSFFLYSKLTVDKSRWQQGNVFSCSVMHEALHNRYTQKSLSLSP light: DIQMTQSPSSLSASVGDRVTITCRSSQSLVHSNRNTYLHWYQQKPGKAPKLLIYKVSNRFSGVPSRFSGSGSGTDFTFTISSLQPEDIATYYCGQGTQVPYTFGQGTKVEIKRTVAAPSVFIFPPSDEQLKSGTASVVCLLNNFYPREAKVQWKVDNALQSGNSQESVTEQDSKDSTYSLSSTLTLSKADYEKHKVYACEVTHQGLSSPVTKSFNRGEC |
| 3.25 | TR01H080-E22Hh/none-Hi-Kn010G3/L0000-k0 (antibody, human IgG1, kappa, L234A L235A, N297A, single-arm) heavy: QVQLVESGGGLVQPGRSLRLSCAASGFTFSNAWMHWVRQAPGKGLEWVAQIKDKSNNYATYYAESVKGRFTISRADSKNSIYLQMNSLKTEDTAVYYCRYVHYAAVRRRLSSYGVDIWGQGTTVTVSSASTKGPSVFPLAPSSKSTSGGTAALGCLVKDYFPEPVTVSWNSGALTSGVHTFPAVLQSSGLYSLSSVVTVPSSSLGTQTYICNVNHKPSNTKVDKKVEPKSCDKTHTCPPCPAPEAAGGPSVFLFPPKPKDTLMISRTPEVTCVVVDVSHEDPEVKFNWYVDGVEVHNAKTKPREEQYASTYRVVSVLTVLHQDWLNGKEYKCKVSNKALPAPIEKTISKAKGQPREPQVYTLPPSRCELTKNQVSLSCAVKGFYPSDIAVEWESNGQPENNYKTTPPVLDSDGSFFLVSKLTVDKSRWQQGNVFSCSVMHEALHNHYTQKSLSLSPDYKDDDDK EPKSSDKTHTCPPCPAPELLGGPSVFLFPPKPKDTLMISRTPEVTCVVVDVSHEDPEVKFNWYVDGVEVHNAKTKPREEQYNSTYRVVSVLTVLHQDWLNGKEYKCKVSNKALPAPIEKTISKAKGQPREPQVCTLPPSRDELTKNQVSLWCLVKGFYPSDIAVEWESNGQPENNYKTTPPVLDSDGSFFLYSKLTVDKSRWQQGNVFSCSVMHEALHNRYTQKSLSLSP light: DIVMTQSPLSLPVTPGEPASISCRSSQSLVHSNRNTYLHWYQQKPGQAPRLLIYKVSNRFSGVPDRFSGSGSGTDFTLKISRVEAEDVGVYYCGQGTQVPYTFGQGTKLEIKRTVAAPSVFIFPPSDEQLKSGTASVVCLLNNFYPREAKVQWKVDNALQSGNSQESVTEQDSKDSTYSLSSTLTLSKADYEKHKVYACEVTHQGLSSPVTKSFNRGEC |
| 6.12 | TR01H077-E22Hh/none-Hi-Kn010G3/L0200-k0 (antibody, human IgG1, kappa, L234A L235A, N297A, single-arm) heavy: QVQLVESGGGLVQPGRSLRLSCAASGFTFSNAWMHWVRQAPGKGLEWVAQIKDKSNNYATYYAESVKGRFTISRADSKNSIYLQMNSLKTEDTAVYYCRYVHYAAAEMVRDDIWGQGTTVTVSSASTKGPSVFPLAPSSKSTSGGTAALGCLVKDYFPEPVTVSWNSGALTSGVHTFPAVLQSSGLYSLSSVVTVPSSSLGTQTYICNVNHKPSNTKVDKKVEPKSCDKTHTCPPCPAPEAAGGPSVFLFPPKPKDTLMISRTPEVTCVVVDVSHEDPEVKFNWYVDGVEVHNAKTKPREEQYASTYRVVSVLTVLHQDWLNGKEYKCKVSNKALPAPIEKTISKAKGQPREPQVYTLPPSRCELTKNQVSLSCAVKGFYPSDIAVEWESNGQPENNYKTTPPVLDSDGSFFLVSKLTVDKSRWQQGNVFSCSVMHEALHNHYTQKSLSLSPDYKDDDDK EPKSSDKTHTCPPCPAPELLGGPSVFLFPPKPKDTLMISRTPEVTCVVVDVSHEDPEVKFNWYVDGVEVHNAKTKPREEQYNSTYRVVSVLTVLHQDWLNGKEYKCKVSNKALPAPIEKTISKAKGQPREPQVCTLPPSRDELTKNQVSLWCLVKGFYPSDIAVEWESNGQPENNYKTTPPVLDSDGSFFLYSKLTVDKSRWQQGNVFSCSVMHEALHNRYTQKSLSLSP light: DIVMTQSPLSLPVTPGEPASISCRPSQSPVHSNRNTYLHWYQQKPGQAPRLLIYKVSNRFSGVPDRFSGSGSGTDFTLKISRVEAEDVGVYYCGQGTQVPYTFGQGTKLEIKRTVAAPSVFIFPPSDEQLKSGTASVVCLLNNFYPREAKVQWKVDNALQSGNSQESVTEQDSKDSTYSLSSTLTLSKADYEKHKVYACEVTHQGLSSPVTKSFNRGEC |
| 50.5 | TR01H079-E22Hh/none-Hi-Kn010G3/L0000-k0 (antibody, human IgG1, kappa, L234A L235A, N297A, single-arm) heavy: QVQLVESGGGLVQPGRSLRLSCAASGFTFSNAWMHWVRQAPGKGLEWVAQIKDKSNNYATYYAESVKGRFTISRADSKNSIYLQMNSLKTEDTAVYYCRYVHYAAAEMVRDSYGVDIWGQGTTVTVSSASTKGPSVFPLAPSSKSTSGGTAALGCLVKDYFPEPVTVSWNSGALTSGVHTFPAVLQSSGLYSLSSVVTVPSSSLGTQTYICNVNHKPSNTKVDKKVEPKSCDKTHTCPPCPAPEAAGGPSVFLFPPKPKDTLMISRTPEVTCVVVDVSHEDPEVKFNWYVDGVEVHNAKTKPREEQYASTYRVVSVLTVLHQDWLNGKEYKCKVSNKALPAPIEKTISKAKGQPREPQVYTLPPSRCELTKNQVSLSCAVKGFYPSDIAVEWESNGQPENNYKTTPPVLDSDGSFFLVSKLTVDKSRWQQGNVFSCSVMHEALHNHYTQKSLSLSPDYKDDDDK EPKSSDKTHTCPPCPAPELLGGPSVFLFPPKPKDTLMISRTPEVTCVVVDVSHEDPEVKFNWYVDGVEVHNAKTKPREEQYNSTYRVVSVLTVLHQDWLNGKEYKCKVSNKALPAPIEKTISKAKGQPREPQVCTLPPSRDELTKNQVSLWCLVKGFYPSDIAVEWESNGQPENNYKTTPPVLDSDGSFFLYSKLTVDKSRWQQGNVFSCSVMHEALHNRYTQKSLSLSP light: DIVMTQSPLSLPVTPGEPASISCRSSQSLVHSNRNTYLHWYQQKPGQAPRLLIYKVSNRFSGVPDRFSGSGSGTDFTLKISRVEAEDVGVYYCGQGTQVPYTFGQGTKLEIKRTVAAPSVFIFPPSDEQLKSGTASVVCLLNNFYPREAKVQWKVDNALQSGNSQESVTEQDSKDSTYSLSSTLTLSKADYEKHKVYACEVTHQGLSSPVTKSFNRGEC |
